{"source": "patent US5869641", "target": "CD4 (extracellular domain, aa 1-370) (Homo sapiens) (UniProt P01730)", "experiment": "flow", "conditions": "2'-F on all C and U; +-0.08; multimeric SA-PE complex, 3.2 RNA per SA-PE; L200-CD4 beads, PBS, 2 mM MgCl2, BSA, room temp"}
{"sequence": "GGGAGACAAGAAUAAACGCUCAANNNNNNNNNNNNNNNNNNNNNNNNNNNNNNNNNNNNNNNNUUCGACAGGAGGCUCACAACAGGC [15th round enriched RNA pool]", "values": [{"measurement": "Kd", "value": 1.5, "unit": "nM"}]}
